Tests used:
[1] = target: Flag-tagged T346A PDK1 mutant
[2] = target: Flag-tagged wild type (WT) PDK1 (not specifically T346-phosphorylated: from normoxic PC3 cells, or dephosphorylated before the kinase assay)
[3] = target: purified recombinant His-tagged PDK1 (Abcam)
[4] = target: purified recombinant His-tagged PDK2 (Abcam), Q15119
[5] = target: purified recombinant His-tagged PDK3 (Abcam), Q15120
[6] = target: purified recombinant His-tagged PDK4 (Abcam), Q16654
Sequence of purified recombinant His-tagged PDK4 (Abcam), Q16654 (Q16654 10-411): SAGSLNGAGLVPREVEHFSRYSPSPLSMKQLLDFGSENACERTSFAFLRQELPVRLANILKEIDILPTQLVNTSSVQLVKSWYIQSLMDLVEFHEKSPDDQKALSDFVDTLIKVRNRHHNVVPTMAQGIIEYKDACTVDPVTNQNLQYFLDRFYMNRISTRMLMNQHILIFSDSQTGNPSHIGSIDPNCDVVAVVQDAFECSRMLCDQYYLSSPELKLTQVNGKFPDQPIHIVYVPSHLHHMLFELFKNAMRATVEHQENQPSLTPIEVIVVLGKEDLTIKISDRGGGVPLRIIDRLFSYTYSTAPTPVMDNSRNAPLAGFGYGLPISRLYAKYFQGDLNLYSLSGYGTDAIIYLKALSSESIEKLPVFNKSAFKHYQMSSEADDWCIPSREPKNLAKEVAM

Sequence of purified recombinant His-tagged PDK1 (Abcam) (chain, as listed by the source): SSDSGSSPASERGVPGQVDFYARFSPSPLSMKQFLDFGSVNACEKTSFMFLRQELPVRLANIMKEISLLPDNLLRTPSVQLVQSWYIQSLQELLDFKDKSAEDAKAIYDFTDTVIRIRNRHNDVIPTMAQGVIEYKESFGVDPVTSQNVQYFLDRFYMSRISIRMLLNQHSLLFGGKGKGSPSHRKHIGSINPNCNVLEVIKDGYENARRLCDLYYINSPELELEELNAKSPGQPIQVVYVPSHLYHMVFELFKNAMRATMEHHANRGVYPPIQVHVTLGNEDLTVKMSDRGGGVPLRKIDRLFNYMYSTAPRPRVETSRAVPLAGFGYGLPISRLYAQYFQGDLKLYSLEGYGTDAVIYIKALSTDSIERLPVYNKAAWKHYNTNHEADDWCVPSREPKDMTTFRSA
Sequence of purified recombinant His-tagged PDK3 (Abcam), Q15120 (Q15120 whole entry, looked up): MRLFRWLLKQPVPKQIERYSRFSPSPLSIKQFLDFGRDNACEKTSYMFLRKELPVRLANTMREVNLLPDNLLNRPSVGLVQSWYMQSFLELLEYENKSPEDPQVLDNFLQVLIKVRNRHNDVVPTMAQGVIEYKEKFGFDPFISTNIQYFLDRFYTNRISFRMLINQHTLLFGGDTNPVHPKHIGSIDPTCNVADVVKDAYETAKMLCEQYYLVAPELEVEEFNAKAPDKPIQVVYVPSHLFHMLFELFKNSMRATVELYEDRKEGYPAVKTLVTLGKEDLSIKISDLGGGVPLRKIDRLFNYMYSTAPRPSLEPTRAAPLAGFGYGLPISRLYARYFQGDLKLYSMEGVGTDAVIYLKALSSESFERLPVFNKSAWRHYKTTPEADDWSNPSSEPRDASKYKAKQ
Sequence of Flag-tagged T346A PDK1 mutant (chain, as listed by the source T346A): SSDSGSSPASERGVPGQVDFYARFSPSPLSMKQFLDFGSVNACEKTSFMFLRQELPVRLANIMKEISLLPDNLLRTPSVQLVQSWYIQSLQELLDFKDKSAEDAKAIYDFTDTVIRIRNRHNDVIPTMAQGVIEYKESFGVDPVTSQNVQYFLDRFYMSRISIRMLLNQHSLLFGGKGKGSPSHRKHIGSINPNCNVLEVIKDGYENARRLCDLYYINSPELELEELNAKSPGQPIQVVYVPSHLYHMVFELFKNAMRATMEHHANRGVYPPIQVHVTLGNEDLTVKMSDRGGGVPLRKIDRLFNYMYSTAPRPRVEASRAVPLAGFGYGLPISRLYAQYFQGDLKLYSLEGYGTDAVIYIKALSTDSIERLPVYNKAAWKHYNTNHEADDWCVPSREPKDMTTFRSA
Sequence of Flag-tagged wild type (WT) PDK1 (not specifically T346-phosphorylated: from normoxic PC3 cells, or dephosphorylated before the kinase assay) (chain, as listed by the source): as the sequence (chain, as listed by the source) above

B1: kinase active Akt2 (SignalChem) (protein)
chain: MNEVSVIKEGWLHKRGEYIKTWRPRYFLLKSDGSFIGYKERPEAPDQTLPPLNNFSVAECQLMKTERPRPNTFVIRCLQWTTVIERTFHVDSPDEREEWMRAIQMVANSLKQRAPGEDPMDYKCGSPSDSSTTEEMEVAVSKARAKVTMNDFDYLKLLGKGTFGKVILVREKATGRYYAMKILRKEVIIAKDEVAHTVTESRVLQNTRHPFLTALKYAFQTHDRLCFVMEYANGGELFFHLSRERVFTEERARFYGAEIVSALEYLHSRDVVYRDIKLENLMLDKDGHIKITDFGLCKEGISDGATMKTFCGTPEYLAPEVLEDNDYGRAVDWWGLGVVMYEMMCGRLPFYNQDHERLFELILMEEIRFPRTLSPEAKSLLAGLLKKDPKQRLGGGPSDAKEVMEHRFFLSINWQDVVQKKLLPPFKPQVTSEVDTRYFDDEFTAQSITITPPDRYDSLGLLELDQRTHFPQFSYSASIRE
[1]
  phosphorylation of Flag immune complexes in a kinase assay, Western blotting with Akt cons Ab: but not a phosphorylation-defective Thr346→Ala (T346A) PDK1 mutant
[2]
  phosphorylation of Flag immune complexes in a kinase assay, Western blotting with Akt cons Ab: active Akt2 phosphorylated wild type (WT) PDK1
[3]
  phosphorylation in a kinase assay, Western blotting with Akt cons Ab: active Akt1 or Akt2 readily phosphorylated PDK1
  phosphorylation site by LC-MS/MS of chymotrypsin digests after a kinase assay: Thr346 (T346) was identified ... as the sole phospho-amino acid modified by Akt1 or Akt2, compared to control
[4]
  phosphorylation in a kinase assay, Western blotting with Akt cons Ab: related PDK2, PDK3 or PDK4 isoforms were unreactive
[5]
  phosphorylation in a kinase assay, Western blotting with Akt cons Ab: related PDK2, PDK3 or PDK4 isoforms were unreactive
[6]
  phosphorylation in a kinase assay, Western blotting with Akt cons Ab: related PDK2, PDK3 or PDK4 isoforms were unreactive
